Test results: patent US20220273789A1

What follows are substances tested against human IgG (human) (assay: BLI (Octet), gEgI on Ni-NTA sensor, hIgG in solution).

Substance	Kd [nM]	Response [nm]	koff [s⁻¹]	kon [M⁻¹ s⁻¹]
HSV2-gE_P317K V340W_gI (from UniProt P89475 21-416; P06764 21-256) (receptor)	517	0.111	0.00348	6740
HSV2-gE_P317S S338G_gI (from UniProt P89475 21-416; P06764 21-256) (receptor)	302	0.595	0.00453	15000
HSV2-gE_P317S S338H_gI (from UniProt P89475 21-416; P06764 21-256) (receptor)	154	0.516	0.0021	13600
HSV2-gE_P317S S338L_gI (from UniProt P89475 21-416; P06764 21-256) (receptor)	167	0.549	0.00163	9770
HSV2-gE_P317S V340M_gI (from UniProt P89475 21-416; P06764 21-256) (receptor)	269	0.623	0.0039	14500
HSV2-gE_P317S V340R_gI (from UniProt P89475 21-416; P06764 21-256) (receptor)	277	0.403	0.00191	6890
HSV2-gE_P317S V340W_gI (from UniProt P89475 21-416; P06764 21-256) (receptor)	351	0.131	0.00282	8050
HSV2-gE_P318D S338G_gI (from UniProt P89475 21-416; P06764 21-256) (receptor)	330	0.143	0.00256	7750
HSV2-gE_P318D S338H_gI (from UniProt P89475 21-416; P06764 21-256) (receptor)	280	0.18	0.00215	7690
HSV2-gE_P318D S338L_gI (from UniProt P89475 21-416; P06764 21-256) (receptor)	163	0.303	0.00107	6560
HSV2-gE_P318I S338G_gI (from UniProt P89475 21-416; P06764 21-256) (receptor)	335	0.237	0.00297	8870
HSV2-gE_P318I S338H_gI (from UniProt P89475 21-416; P06764 21-256) (receptor)	286	0.252	0.0025	8740
HSV2-gE_P318I S338L_gI (from UniProt P89475 21-416; P06764 21-256) (receptor)	152	0.411	0.00124	8130
HSV2-gE_P318R S338H_gI (from UniProt P89475 21-416; P06764 21-256) (receptor)	5.32	0.192	4.28e-05	8050
HSV2-gE_P318R S338L_gI (from UniProt P89475 21-416; P06764 21-256) (receptor)	176	0.49	0.00138	7870
HSV2-gE_P319G V340M_gI (from UniProt P89475 21-416; P06764 21-256) (receptor)	297	0.393	0.00393	13200
HSV2-gE_P319G V340R_gI (from UniProt P89475 21-416; P06764 21-256) (receptor)	197	0.287	0.00137	6960
HSV2-gE_P319G V340W_gI (from UniProt P89475 21-416; P06764 21-256) (receptor)	385	0.106	0.00249	6460
HSV2-gE_P319L V340M_gI (from UniProt P89475 21-416; P06764 21-256) (receptor)	222	0.336	0.00216	9750
HSV2-gE_P319L V340R_gI (from UniProt P89475 21-416; P06764 21-256) (receptor)	160	0.509	0.00141	8770
HSV2-gE_P319L V340W_gI (from UniProt P89475 21-416; P06764 21-256) (receptor)	230	0.139	0.00217	9450
HSV2-gE_R314G F322A_gI (from UniProt P89475 21-416; P06764 21-256) (receptor)	232	0.469	0.00328	14200
HSV2-gE_R314G F322I_gI (from UniProt P89475 21-416; P06764 21-256) (receptor)	272	0.291	0.00262	9620
HSV2-gE_R314G F322P_gI (from UniProt P89475 21-416; P06764 21-256) (receptor)	181	0.439	0.00209	11500

Substance	Kd [nM]	Response [nm]	koff [s⁻¹]	kon [M⁻¹ s⁻¹]
HSV2-gE_R314G P318D_gI (from UniProt P89475 21-416; P06764 21-256) (receptor)	369	0.122	0.0033	8930
HSV2-gE_R314G P318I_gI (from UniProt P89475 21-416; P06764 21-256) (receptor)	449	0.153	0.00278	6200
HSV2-gE_R314G P318R_gI (from UniProt P89475 21-416; P06764 21-256) (receptor)	148	0.22	0.000833	5640
HSV2-gE_R314G V340M_gI (from UniProt P89475 21-416; P06764 21-256) (receptor)	390	0.466	0.00401	10300
HSV2-gE_R314G V340R_gI (from UniProt P89475 21-416; P06764 21-256) (receptor)	394	0.439	0.00245	6230
HSV2-gE_R314G V340W_gI (from UniProt P89475 21-416; P06764 21-256) (receptor)	1010	0.144	0.00543	5400
HSV2-gE_R314L F322A_gI (from UniProt P89475 21-416; P06764 21-256) (receptor)	303	0.603	0.00385	12700
HSV2-gE_R314L F322I_gI (from UniProt P89475 21-416; P06764 21-256) (receptor)	274	0.433	0.00277	10100
HSV2-gE_R314L F322P_gI (from UniProt P89475 21-416; P06764 21-256) (receptor)	210	0.607	0.00255	12100
HSV2-gE_R314L P318D_gI (from UniProt P89475 21-416; P06764 21-256) (receptor)	< 0.001	0.134	< 1e-07	7900
HSV2-gE_R314L P318I_gI (from UniProt P89475 21-416; P06764 21-256) (receptor)	261	0.294	0.00198	7580
HSV2-gE_R314L P318R_gI (from UniProt P89475 21-416; P06764 21-256) (receptor)	< 0.001	0.202	< 1e-07	8050
HSV2-gE_R314L V340M_gI (from UniProt P89475 21-416; P06764 21-256) (receptor)	452	0.427	0.00456	10100
HSV2-gE_R314L V340R_gI (from UniProt P89475 21-416; P06764 21-256) (receptor)	615	0.284	0.00307	4990
HSV2-gE_R314L V340W_gI (from UniProt P89475 21-416; P06764 21-256) (receptor)	914	0.148	0.00524	5740
HSV2-gE_R314P F322A_gI (from UniProt P89475 21-416; P06764 21-256) (receptor)	247	0.655	0.00423	17100
HSV2-gE_R314P F322I_gI (from UniProt P89475 21-416; P06764 21-256) (receptor)	300	0.389	0.0036	12000
HSV2-gE_R314P F322P_gI (from UniProt P89475 21-416; P06764 21-256) (receptor)	283	0.561	0.00356	12600
HSV2-gE_R314P P318D_gI (from UniProt P89475 21-416; P06764 21-256) (receptor)	222	0.306	0.00145	6520
HSV2-gE_R314P P318I_gI (from UniProt P89475 21-416; P06764 21-256) (receptor)	277	0.248	0.00223	8040
HSV2-gE_R314P P318R_gI (from UniProt P89475 21-416; P06764 21-256) (receptor)	317	0.371	0.00199	6270
HSV2-gE_R314P V340M_gI (from UniProt P89475 21-416; P06764 21-256) (receptor)	402	0.525	0.0046	11400
HSV2-gE_R314P V340R_gI (from UniProt P89475 21-416; P06764 21-256) (receptor)	459	0.351	0.00241	5260
